Test results reported in patent US7947285B2, “Methods for preventing post endoscopic retrograde cholangiopancreatography pancreatitis” (priority 2003, dated 2011).
Where no end group is shown, it is not given here.

System: patients undergoing ERCP
Test: Adverse events
Type: in vivo, human
Experimental: This study evaluated the following safety variables: (1) Adverse events; (2) Vital signs; (3) Serum Amylase (when clinically indicated); and (4) Serum Lipase (when clinically indicated). No drug concentration measurements were assessed in this study.
Primary and secondary efficacy variables were compared between the treatment groups using the Fisher Exact Test or Cochran-Mantel Haenszel Association Test. Adverse events and vital signs (heart rate, blood pressure) were compared between the treatment groups using the t-test. The clinical assumption on which the power calculation is based was on incidence of post-ERCP pancreatitis among all patients without pancreas divisum of 6%. In order to show a 50% reduction in the rate of post-ERCP pancreatitis with a significance of p=0.05, at a power of 80%, 749 evaluable patients per treatment group (sPS vs. placebo) were needed.

Substance: synthetic porcine secretin (HSDGTFTSELSRLRDSARLQRLLQGLV-NH2; ends and bridges not checked; UniProt P63298 33-59, looked up) [SPS, synthetic form of porcine secretin, a 27 amino acid gastrointestinal peptide hormone]
- Patients with AE related to study drug (%) (N = 488): 0.2%
- Patients with AE related to study drug: number (N = 488): 1
- Patients with serious AE (%) (N = 488): 0 (0) %
- Patients with serious AE: number (N = 488): 0 (0)
- Patients with severe AE (%) (N = 488): 0.2%
- Patients with severe AE: number (N = 488): 1
- Patients with unknown severity to AE (%) (N = 488): 0.2%
- Patients with unknown severity to AE: number (N = 488): 1
- Total No. of AEs related to study drug (N = 488): 1
- Total No. of AEs related to study drug (%) (N = 488): 0.2%
- Total No. of serious Aes (N = 488): 0 (0)
- Total No. of serious Aes (%) (N = 488): 0 (0) %
- Total No. of severe Aes (N = 488): 2
- Total No. of severe Aes (%) (N = 488): 0.4%
- Total No. of unknown severity to AE (N = 488): 1
- Total No. of unknown severity to AE (%) (N = 488): 0.2%
- Total No. of Aes (N = 488, p 0.0006): 25
- Total No. of Aes (%) (N = 488, p 0.0006): 5.1%
- Total No. of mild/moderate Aes (N = 488, p 0.0039): 21
- Total No. of mild/moderate Aes (%) (N = 488, p 0.0039): 4.3%
- Patients with any AE (%) (N = 488, p 0.0052): 4.1%
- Patients with any AE: number (N = 488, p 0.0052): 20
- Patients with mild/moderate AE (%) (N = 488, p 0.0208): 3.5%
- Patients with mild/moderate AE: number (N = 488, p 0.0208): 17
- AE judged by the investigator to be related to study drug (patient #16, mild AE of an hour duration): drop in blood pressure
- overall safety and tolerability (patients undergoing ERCP, 16 mcg IV): safe and well tolerated
